pKd: −log10 of the molar value.
How the values were obtained:
A244 Δ11 gp120 (HIV-1) [1] = test: SPR; A244 gp120 gD- Δ11 293T monomer batch 110608 flowed over immobilised T8; response axis in RU
A244 Δ11 gp120 (HIV-1) [2] = test: SPR; A244 gp120 gD- Δ11 293T monomer batch 110608 flowed over immobilised T8; ratio to ConS gp140
A244 Δ11 gp120 (HIV-1) [3] = test: SPR titration, binding to CH03 mAb; A244 gDneg D11 at [10] to [100], unit inferred
A244 Δ11 gp120 (HIV-1) [4] = test: SPR titration, binding to CH03 mAb; A244 gDneg D11 at [10], [25], [50], [75], [100], unit inferred
[5] = target: A244 gp120 (no modifications) (HIV-1); test: SPR titration, binding to CH03 mAb; A244 gDneg at [10] to [100], unit inferred
[6] = target: A244 gDΔ11 gp120 (Herpes simplex virus; HIV-1); test: SPR, mAb captured on anti-Fc surface, monomeric gp120 as analyte
A244 Δ11 gp120 (HIV-1) [7] = test: as above
[8] = target: A244 gp120 (no modifications) (HIV-1); test: as above
[9] = target: A244 gDΔ11 gp120 (Herpes simplex virus; HIV-1); test: SPR
A244 Δ11 gp120 (HIV-1) [10] = test: SPR
A244 Δ11 gp120 (HIV-1) [11] = test: SPR; 17b flowed over A244gD- d11 (batch 110608) held on immobilised sCD4 (sCD4-triggered Env)
A244 Δ11 gp120 (HIV-1) [12] = test: SPR; 17b flowed over A244gD- d11 (batch 110608) held on immobilised A32 (A32-triggered Env); response axis in RU
A244 Δ11 gp120 (HIV-1) [13] = test: SPR; 17b flowed over A244gD- d11 (batch 110608) held on immobilised sCD4 (sCD4-triggered Env); response axis in RU
A244 Δ11 gp120 (HIV-1) [14] = test: SPR; 17b flowed over A244gD- d11 (batch 110608) held on immobilised A32 (A32-triggered Env)
A244 Δ11 gp120 (HIV-1) [15] = test: SPR; 17b flowed over A244gD- d11 (batch 110608) held on immobilised T8 (T8-triggered Env); response axis in RU
A244 Δ11 gp120 (HIV-1) [16] = test: SPR titration, binding to PG9 mAb (IAVI PG9); A244 gDneg D11 at [10] to [100], unit inferred
[17] = target: A244 gp120 (no modifications) (HIV-1); test: Kd table; row AE.A244 gp120, column PG9 gD-; method not given
A244 Δ11 gp120 (HIV-1) [18] = test: SPR titration, binding to PG9 mAb (IAVI PG9); A244 gDneg D11 at [10], [25], [50], [75], [100], unit inferred
[19] = target: MN gp120 (no modifications) (HIV-1); test: Kd table; row B.MN gp120, column PG9 gD-; method not given
[20] = target: MN gDΔ11 gp120 (Herpes simplex virus; HIV-1); test: Kd table; row B.MN gp120, column PG9 gD+; method not given
[21] = target: A244 gDΔ11 gp120 (Herpes simplex virus; HIV-1); test: SPR titration, binding to PG9 mAb (IAVI PG9); A244 gD+293Tmon at [10] to [40], unit inferred
[22] = target: A244 gDΔ11 gp120 (Herpes simplex virus; HIV-1); test: SPR titration, binding to PG9 mAb (IAVI PG9); A244 gD+293Tmon at [10], [20], [30], [40], unit inferred
[23] = target: 92TH023 gDΔ11 gp120 (Herpes simplex virus; HIV-1); test: Kd table; row AE.92TH023 gp120, column PG9 gD+; method not given
[24] = target: A244 gDΔ11 gp120 (Herpes simplex virus; HIV-1); test: Kd table; row AE.A244 gp120, column PG9 gD+; method not given
[25] = target: A244 gDΔ11 gp120 (Herpes simplex virus; HIV-1); test: Kd table; row AE.A244 gp120, column CH01 gD+; method not given
[26] = target: A244 gp120 (no modifications) (HIV-1); test: SPR titration, binding to CH01 mAb; A244 gDneg at [10] to [100], unit inferred; the sheet prints a slash where a decimal point is meant (kd/ka as printed gives 3.1 µM)
[27] = target: MN gDΔ11 gp120 (Herpes simplex virus; HIV-1); test: Kd table; row B.MN gp120, column CH01 gD+; method not given
[28] = target: A244 gDΔ11 gp120 (Herpes simplex virus; HIV-1); test: SPR titration, binding to CH01 mAb; A244 gD+ 293Tmon at [5] to [100], unit inferred; footnote: '* Fit deviation, need to lower Ag density'
[29] = target: A244 gp120 (no modifications) (HIV-1); test: SPR titration, binding to CH01 mAb; A244 gDneg at [10], [25], [50], [75], [100], unit inferred
[30] = target: A244 gDΔ11 gp120 (Herpes simplex virus; HIV-1); test: SPR titration, binding to CH01 mAb; A244 gD+ 293Tmon at [5] to [100], unit inferred
A244 Δ11 gp120 (HIV-1) [31] = test: SPR titration, binding to CH01 mAb; A244 gDneg D11 at [10], [25], [50], [75], [100], unit inferred
[32] = target: A244 gp120 (no modifications) (HIV-1); test: Kd table; row AE.A244 gp120, column CH01 gD-; method not given
[33] = target: MN gp120 (no modifications) (HIV-1); test: Kd table; row B.MN gp120, column CH01 gD-; method not given
[34] = target: A244 gp120 (no modifications) (HIV-1); test: SPR titration, binding to CH01 mAb; A244 gDneg at [10] to [100], unit inferred
A244 Δ11 gp120 (HIV-1) [35] = test: SPR titration, binding to CH01 mAb; A244 gDneg D11 at [10] to [100], unit inferred
[36] = target: A244 gDΔ11 gp120 (Herpes simplex virus; HIV-1); test: SPR titration, binding to CH01 mAb; A244 gD+ 293Tmon at [5], [10], [25], [50], [100], unit inferred
A244 Δ11 gp120 (HIV-1) [37] = test: SPR blocking on immobilized A244 Δ11 gp120, mAb injected to near saturation, then RV144 vaccinee IgG; against 7B2 control
[38] = target: MN-rgp120 (RV144 vaccine immunogen) (Herpes simplex virus; HIV-1); test: SPR, mAb captured on anti-Fc surface, gp120 as analyte (FIG. 28)
[39] = target: MN-rgp120 (RV144 vaccine immunogen) (Herpes simplex virus; HIV-1); test: SPR; 19b captured on anti-Fc surface, RV144 MN-rgp120 injected at 0.5-5 µg/mL; fitted curves
[40] = target: A244-rgp120 (RV144 vaccine immunogen) (Herpes simplex virus; HIV-1); test: SPR; 19b captured on anti-Fc surface, RV144 A244-rgp120 injected at 0.5-5 µg/mL; fitted curves [lower row]

T8 (C1 mAb) (antibody)
Req (A244 Δ11 gp120 (HIV-1) [1]): 1250 | Relative Binding Env/ConS gp140 (A244 Δ11 gp120 (HIV-1) [2]): 2.88

mAb CH03 (V2,V3 conformational) (antibody)
pKd (A244 Δ11 gp120 (HIV-1) [3]): 6.21 | koff (A244 Δ11 gp120 (HIV-1) [3]): 0.0167 s⁻¹ | kon (A244 Δ11 gp120 (HIV-1) [4]): 27000 M⁻¹ s⁻¹ | pKd [5]: 5.26 | koff [5]: 0.0055 s⁻¹

V2 mAb 830A (antibody)
pKd [6]: 8.77 | koff [6]: 7e-05 s⁻¹ | kon [6]: 41100 M⁻¹ s⁻¹ | pKd (A244 Δ11 gp120 (HIV-1) [7]): 8.81 | koff (A244 Δ11 gp120 (HIV-1) [7]): 8.8e-05 s⁻¹ | kon (A244 Δ11 gp120 (HIV-1) [7]): 59900 M⁻¹ s⁻¹ | pKd [8]: 7.99 | koff [8]: 0.00022 s⁻¹ | kon [8]: 21800 M⁻¹ s⁻¹ | fold more avid than to unmodified A244 gp120 [9]: 5 fold | fold more avid than to unmodified A244 gp120 (A244 Δ11 gp120 (HIV-1) [10]): 5 fold

CCR5 receptor gp120 binding site mAb 17b (antibody)
17b binding ratio (A244 Δ11 gp120 (HIV-1) [11]): 0.316 | Req (A244 Δ11 gp120 (HIV-1) [12]): 529 | Req (A244 Δ11 gp120 (HIV-1) [13]): 166 | 17b binding ratio (A244 Δ11 gp120 (HIV-1) [14]): 0.327 | Req (A244 Δ11 gp120 (HIV-1) [15]): -169

V2V3 bnAb PG9 (antibody)
pKd (A244 Δ11 gp120 (HIV-1) [16]): 7.05 | koff (A244 Δ11 gp120 (HIV-1) [16]): 0.00102 s⁻¹ | pKd [6]: 7.32 | koff [6]: 0.00055 s⁻¹ | kon [6]: 11500 M⁻¹ s⁻¹ | pKd (A244 Δ11 gp120 (HIV-1) [7]): 7.28 | koff (A244 Δ11 gp120 (HIV-1) [7]): 0.00057 s⁻¹ | kon (A244 Δ11 gp120 (HIV-1) [7]): 10900 M⁻¹ s⁻¹ | pKd [8]: 6.74 | koff [8]: 0.0011 s⁻¹ | kon [8]: 5000 M⁻¹ s⁻¹ | pKd [17]: 5.96 | fold higher affinity than for unmodified A244 gp120 [9]: 3 fold | fold higher affinity than for unmodified A244 gp120 (A244 Δ11 gp120 (HIV-1) [10]): 3 fold | kon (A244 Δ11 gp120 (HIV-1) [18]): 11500 M⁻¹ s⁻¹ | pKd [19]: 6.46 | pKd [20]: 6.27 | pKd [21]: 7.20 | koff [21]: 0.00105 s⁻¹ | kon [22]: 16800 M⁻¹ s⁻¹ | pKd [23]: 6.67 | pKd [24]: 6.89

V2V3 bnAb CH01 (antibody)
pKd [25]: 6.70 | pKd [6]: 6.56 | koff [6]: 0.0099 s⁻¹ | kon [6]: 37200 M⁻¹ s⁻¹ | pKd (A244 Δ11 gp120 (HIV-1) [7]): 6.50 | koff (A244 Δ11 gp120 (HIV-1) [7]): 0.0156 s⁻¹ | kon (A244 Δ11 gp120 (HIV-1) [7]): 49000 M⁻¹ s⁻¹ | pKd [8]: 5.79 | koff [8]: 0.00438 s⁻¹ | kon [8]: 3730 M⁻¹ s⁻¹ | pKd [26]: 5.51 | pKd [27]: 6.54 | pKd [28]: 6.54 | kon [29]: 760 M⁻¹ s⁻¹ | koff [30]: 0.0028 s⁻¹ | fold faster association rate than with unmodified gp120 [9]: 10 fold | fold higher affinity than for unmodified A244 gp120 [9]: 5 fold | fold faster association rate than with unmodified gp120 (A244 Δ11 gp120 (HIV-1) [10]): 10 fold | fold higher affinity than for unmodified A244 gp120 (A244 Δ11 gp120 (HIV-1) [10]): 5 fold | kon (A244 Δ11 gp120 (HIV-1) [31]): 31100 M⁻¹ s⁻¹ | pKd [32]: 5.68 | pKd [33]: 6.34 | koff [34]: 0.00237 s⁻¹ | pKd (A244 Δ11 gp120 (HIV-1) [35]): 6.37 | koff (A244 Δ11 gp120 (HIV-1) [35]): 0.0135 s⁻¹ | kon [36]: 9800 M⁻¹ s⁻¹ | percent blocking of RV144 vaccinee IgG binding (A244 Δ11 gp120 (HIV-1) [37]): 24.6%

V3 mAb 19b (antibody)
pKd [6]: 8.08 | koff [6]: 0.0014 s⁻¹ | kon [6]: 170000 M⁻¹ s⁻¹ | pKd (A244 Δ11 gp120 (HIV-1) [7]): 8.18 | koff (A244 Δ11 gp120 (HIV-1) [7]): 0.00156 s⁻¹ | kon (A244 Δ11 gp120 (HIV-1) [7]): 239000 M⁻¹ s⁻¹ | pKd [8]: 7.93 | koff [8]: 0.00154 s⁻¹ | kon [8]: 130000 M⁻¹ s⁻¹ | fold lower Kd than for A244-rgp120 [38]: 5 fold | pKd [39]: 8.47 | pKd [40]: 7.82

VRC01 (CD4 bs mAb) (antibody)
pKd [6]: 7.80 | koff [6]: 0.00021 s⁻¹ | kon [6]: 13300 M⁻¹ s⁻¹ | pKd (A244 Δ11 gp120 (HIV-1) [7]): 7.44 | koff (A244 Δ11 gp120 (HIV-1) [7]): 0.00039 s⁻¹ | kon (A244 Δ11 gp120 (HIV-1) [7]): 9700 M⁻¹ s⁻¹ | pKd [8]: 7.80 | koff [8]: 0.00028 s⁻¹ | kon [8]: 17600 M⁻¹ s⁻¹

Reference: patent US10040826
